According to the supplement of paper PMC5998384:

What was measured:
HeLa Kyoto [1] = assay: solubility in G1/S (NP-40 vs SDS abundance) (log2 ratio); higher = more soluble; settings: cell cycle stage: G1/S
HeLa Kyoto [2] = assay: melting temperature (median over replicates), in situ; higher = more thermally stable
HeLa Kyoto [3] = assay: solubility change mitosis vs G1/S (difference of NP-40 vs SDS log2 ratios) (log2 ratio difference); higher = more soluble in mitosis
HeLa Kyoto [4] = assay: thermal stability score vs G1/S (z-score of summed log2 fold changes over temperatures); higher = more thermally stable than in G1/S
[5] = cell cycle stage: early G1 (4.5 h after nocodazole release)
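Wherever melting temperature (median over replicates), in situ is given: HeLa Kyoto cells synchronized by double thymidine or nocodazole block, proteins quantified by TMT10plex mass spectrometry, three independent biological replicates.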
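Wherever solubility change mitosis vs G1/S (difference of NP-40 vs SDS log2 ratios) is given: synchronized HeLa Kyoto cells (double thymidine block for G1/S, nocodazole release for mitosis), protein amounts in NP-40 versus SDS lysates quantified by mass spectrometry, three biological replicates.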
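Wherever solubility in G1/S (NP-40 vs SDS abundance) is given: HeLa Kyoto cells arrested at G1/S by double thymidine block, proteins quantified by TMT10plex mass spectrometry in mild NP-40 versus SDS extracts, three biological replicates.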
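Wherever thermal stability score vs G1/S (z-score of summed log2 fold changes over temperatures) is given: synchronized HeLa Kyoto cells, proteins quantified by TMT10plex mass spectrometry, three biological replicates, mitosis taken 0.5 h after nocodazole release, G1/S directly after double thymidine block.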

Sequence	solubility in G1/S (log2) (HeLa Kyoto [1])	melting temperature (HeLa Kyoto [2]; cell cycle stage: G1/S) [°C]	melting temperature (HeLa Kyoto [2]; cell cycle stage: mitosis) [°C]	solubility change mitosis (log2) (HeLa Kyoto [3])	thermal stability score (HeLa Kyoto [4]; [5])	thermal stability score (HeLa Kyoto [4]; cell cycle stage: mitosis)
MAECGASGSGSSGDSLDKSITLPPDEIFRNLENAKRFAIDIGGSLTKLAYYSTVQHKVAKVRSFDHSGKDTEREHEPPYEISVQEEITARLHFIKFENTYIEACLDFIKDHLVNTETKVIQATGGGAYKFKDLIEEKLRLKVDKEDVMTCLIKGCNFVLKNIPHEAFVYQKDSDPEFRFQTNHPHIFPYLLVNIGSGVSIVKVETEDRFEWVGGSSIGGGTFWGLGALLTKTKKFDELLHLASRGQHSNVDMLVRDVYGGAHQTLGLSGNLIASSFGKSATADQEFSKEDMAKSLLHMISNDIGQLACLHARLHSLDRVYFGGFFIRGHPVTMRTITYSINFFSKGEVQALFLRHEGYLGAIGAFLKGAEQDNPNQYSWGENYAGSSGLMSASPELGPAQRARSGTFDLLEMDRLERPLVDLPLLLDPPSYVPDTVDLTDDALARKYWLTCFEEALDGVVKRAVASQPDSVDAAERAEKFRQKYWNKLQTLRQQPFAYGTLTVRSLLDTREHCLNEFNFPDPYSKVKQRENGVALRCFPGVVRSLDALGWEERQLALVKGLLAGNVFDWGAKAVSAVLESDPYFGFEEAKRKLQERPWLVDSYSEWLQRLKGPPHKCALIFADNSGIDIILGVFPFVRELLLRGTEVILACNSGPALNDVTHSESLIVAERIAGMDPVVHSALQEERLLLVQTGSSSPCLDLSRLDKGLAALVRERGADLVVIEGMGRAVHTNYHAALRCESLKLAVIKNAWLAERLGGRLFSVIFKYEVPAE [PANK4]	-0.125	52	51.7	-0.0425	0.0566	-0.284
MAEEEVAKLEKHLMLLRQEYVKLQKKLAETEKRCALLAAQANKESSSESFISRLLAIVADLYEQEQYSDLKIKVGDRHISAHKFVLAARSDSWSLANLSSTKELDLSDANPEVTMTMLRWIYTDELEFREDDVFLTELMKLANRFQLQLLRERCEKGVMSLVNVRNCIRFYQTAEELNASTLMNYCAEIIASHWDDLRKEDFSSMSAQLLYKMIKSKTEYPLHKAIKVEREDVVFLYLIEMDSQLPGKLNEADHNGDLALDLALSRRLESIATTLVSHKADVDMVDKSGWSLLHKGIQRGDLFAATFLIKNGAFVNAATLGAQETPLHLVALYSSKKHSADVMSEMAQIAEALLQAGANPNMQDSKGRTPLHVSIMAGNEYVFSQLLQCKQLDLELKDHEGSTALWLAVQHITVSSDQSVNPFEDVPVVNGTSFDENSFAARLIQRGSHTDAPDTATGNCLLQRAAGAGNEAAALFLATNGAHVNHRNKWGETPLHTACRHGLANLTAELLQQGANPNLQTEEALPLPKEAASLTSLADSVHLQTPLHMAIAYNHPDVVSVILEQKANALHATNNLQIIPDFSLKDSRDQTVLGLALWTGMHTIAAQLLGSGAAINDTMSDGQTLLHMAIQRQDSKSALFLLEHQADINVRTQDGETALQLAIRNQLPLVVDAICTRGADMSVPDEKGNPPLWLALANNLEDIASTLVRHGCDATCWGPGPGGCLQTLLHRAIDENNEPTACFLIRSGCDVNSPRQPGANGEGEEEARDGQTPLHLAASWGLEETVQCLLEFGANVNAQDAEGRTPIHVAISSQHGVIIQLLVSHPDIHLNVRDRQGLTPFACAMTFKNNKSAEAILKRESGAAEQVDNKGRNFLHVAVQNSDIESVLFLISVHANVNSRVQDASKLTPLHLAVQAGSEIIVRNLLLAGAKVNELTKHRQTALHLAAQQDLPTICSVLLENGVDFAAVDENGNNALHLAVMHGRLNNIRVLLTECTVDAEAFNLRGQSPLHILGQYGKENAAAIFDLFLECMPGYPLDKPDADGSTVLLLAYMKGNANLCRAIVRSGARLGVNNNQGVNIFNYQVATKQLLFRLLDMLSKEPPWCDGSYCYECTARFGVTTRKHHCRHCGRLLCHKCSTKEIPIIKFDLNKPVRVCNICFDVLTLGGVS [ANKFY1]	-0.0647	48.8	49.3	-0.175	0.358	1.34
MAEFTSYKETASSRHLRFKLQSLSRRLDELEEATKNLQKAEDELLDLQDKVIQAEGSNSSMLAEIEVLRQRVLRIEGKDEEIKRAEDLCRLMKEKLEEEENLTRELKSEIERLQKRMAELEKLEEAFSRSKNDCTQLCLSLNEERNLTKKISSELEMLRVKVKELESSEDRLDKTEQSLASELEKLKSLTLSFVSERKYLNEKEKENEKLIKELTQKLEQNKKMNRDYTRNASNLERNDLRIEDGISSTLPSKESRRKGGLDYLKQVENETRNKSENEKNRNQEDNKVKDLNQEIEKLKTQIKHFESLEEELKKMKSKNNDLQDNYLSEQNKNKLLASQLEEIKLQIKKQKELENGEVEGEDAFLSSKGRHERTKFRGHGSEASVSKHTARELSPQHKRERLRNREFALNNENYSLSNRQVSSPSFTNRRAAKASHMGVSTDSGTQETKKTEDRFVPGSSQSEGKKSREQPSVLSRYPPAAQEHSKAWKGTSKPGTESGLKGKVEKTTRTFSDTTHGSVPSDPLGRADKASDTSSETVFGKRGHVLGNGSQVTQAANSGCSKAIGALASSRRSSSEGLSKGKKAANGLEADNSCPNSKAPVLSKYPYSCRSQENILQGFSTSHKEGVNQPAAVVMEDSSPHEALRCRVIKSSGREKPDSDDDLDIASLVTAKLVNTTITPEPEPKPQPNSREKAKTRGAPRTSLFENDKDAGMENESVKSVRASTNTMELPDTNGAGVKSQRPFSPREALRSRAIIKPVIVDKDVKKIMGGSGTETTLEKQKPVSKPGPNKVTSSITIYPSDSSSPRAAPGEALRERHTSTSNIQVGLAELTSVSNHVSSPFELSIHKHDITLQLAEAERMADGPLKDRPETVVSRSSIIIKPSDPVERNSHAPPAETIRWKSHSAPSEVGFSDARHVTVRNAWKSRRDLKSLEDPPTRIGKNVESTNSNAYTQRSSTDFSELEQPRSCLFEQGTRRVGPSSGDAPEPSSRRTQSSLTVSEVLTRRNRVGDTITVAAWNHSASMEEEGEDCTLSVYRQLHNSLDPSELPGKQGLPESGRVRAEERLRPTRPCAEEN [LUZP1]	-0.781	51.8	52.3	0.14	0.392	0.722
MAEGGAADLDTQRSDIATLLKTSLRKGDTWYLVDSRWFKQWKKYVGFDSWDKYQMGDQNVYPGPIDNSGLLKDGDAQSLKEHLIDELDYILLPTEGWNKLVSWYTLMEGQEPIARKVVEQGMFVKHCKVEVYLTELKLCENGNMNNVVTRRFSKADTIDTIEKEIRKIFSIPDEKETRLWNKYMSNTFEPLNKPDSTIQDAGLYQGQVLVIEQKNEDGTWPRGPSTPKSPGASNFSTLPKISPSSLSNNYNNMNNRNVKNSNYCLPSYTAYKNYDYSEPGRNNEQPGLCGLSNLGNTCFMNSAIQCLSNTPPLTEYFLNDKYQEELNFDNPLGMRGEIAKSYAELIKQMWSGKFSYVTPRAFKTQVGRFAPQFSGYQQQDCQELLAFLLDGLHEDLNRIRKKPYIQLKDADGRPDKVVAEEAWENHLKRNDSIIVDIFHGLFKSTLVCPECAKISVTFDPFCYLTLPLPMKKERTLEVYLVRMDPLTKPMQYKVVVPKIGNILDLCTALSALSGIPADKMIVTDIYNHRFHRIFAMDENLSSIMERDDIYVFEININRTEDTEHVIIPVCLREKFRHSSYTHHTGSSLFGQPFLMAVPRNNTEDKLYNLLLLRMCRYVKISTETEETEGSLHCCKDQNINGNGPNGIHEEGSPSEMETDEPDDESSQDQELPSENENSQSEDSVGGDNDSENGLCTEDTCKGQLTGHKKRLFTFQFNNLGNTDINYIKDDTRHIRFDDRQLRLDERSFLALDWDPDLKKRYFDENAAEDFEKHESVEYKPPKKPFVKLKDCIELFTTKEKLGAEDPWYCPNCKEHQQATKKLDLWSLPPVLVVHLKRFSYSRYMRDKLDTLVDFPINDLDMSEFLINPNAGPCRYNLIAVSNHYGGMGGGHYTAFAKNKDDGKWYYFDDSSVSTASEDQIVSKAAYVLFYQRQDTFSGTGFFPLDRETKGASAATGIPLESDEDSNDNDNDIENENCMHTN [USP15]	0.00479	49.8	49.9	-0.118	-0.274	0.549
MAEGNTLISVDYEIFGKVQGVFFRKHTQAEGKKLGLVGWVQNTDRGTVQGQLQGPISKVRHMQEWLETRGSPKSHIDKANFNNEKVILKLDYSDFQIVK [ACYP1]	0.223	52.3	52.7	-0.0383	0.389	-1.31
MAEGTAEAPLENGGGGDSGAGALERGVAPIKRQYLTTKEQFHQFLEAKGQEKTCRETEVGDPAGNELAEPEAKRIRLEDGQTADGQTEEAAEPGEQLQTQKRARGQNKGRPHVKPTNYDKNRLCPSLIQESAAKCFFGDRCRFLHDVGRYLETKPADLGPRCVLFETFGRCPYGVTCRFAGAHLRPEGQNLVQEELAARGTQPPSIRNGLDKALQQQLRKREVRFERAEQALRRFSQGPTPAAAVPEGTAAEGAPRQENCGAQQVPAGPGTSTPPSSPVRTCGPLTDEDVVRLRPCEKKRLDIRGKLYLAPLTTCGNLPFRRICKRFGADVTCGEMAVCTNLLQGQMSEWALLKRHQCEDIFGVQLEGAFPDTMTKCAELLSRTVEVDFVDINVGCPIDLVYKKGGGCALMNRSTKFQQIVRGMNQVLDVPLTVKIRTGVQERVNLAHRLLPELRDWGVALVTLHGRSREQRYTKLADWQYIEECVQAASPMPLFGNGDILSFEDANRAMQTGVTGIMIARGALLKPWLFTEIKEQRHWDISSSERLDILRDFTNYGLEHWGSDTQGVEKTRRFLLEWLSFLCRYVPVGLLERLPQRINERPPYYLGRDYLETLMASQKAADWIRISEMLLGPVPPSFAFLPKHKANAYK [DUS3L]	-0.0832	49	48.5	-0.0331	1.52	2.59
MAEISDLDRQIEQLRRCELIKESEVKALCAKAREILVEESNVQRVDSPVTVCGDIHGQFYDLKELFRVGGDVPETNYLFMGDFVDRGFYSVETFLLLLALKVRYPDRITLIRGNHESRQITQVYGFYDECLRKYGSVTVWRYCTEIFDYLSLSAIIDGKIFCVHGGLSPSIQTLDQIRTIDRKQEVPHDGPMCDLLWSDPEDTTGWGVSPRGAGYLFGSDVVAQFNAANDIDMICRAHQLVMEGYKWHFNETVLTVWSAPNYCYRCGNVAAILELDEHLQKDFIIFEAAPQETRGIPSKKPVADYFL [PPP4C]	-0.237	54.8	55.3	-0.0748	0.0354	-1.42
MAEKVLVTGGAGYIGSHTVLELLEAGYLPVVIDNFHNAFRGGGSLPESLRRVQELTGRSVEFEEMDILDQGALQRLFKKYSFMAVIHFAGLKAVGESVQKPLDYYRVNLTGTIQLLEIMKAHGVKNLVFSSSATVYGNPQYLPLDEAHPTGGCTNPYGKSKFFIEEMIRDLCQADKTWNAVLLRYFNPTGAHASGCIGEDPQGIPNNLMPYVSQVAIGRREALNVFGNDYDTEDGTGVRDYIHVVDLAKGHIAALRKLKEQCGCRIYNLGTGTGYSVLQMVQAMEKASGKKIPYKVVARREGDVAACYANPSLAQEELGWTAALGLDRMCEDLWRWQKQNPSGFGTQA [GALE]	0.453	53.3	53.8	-0.146	-3.9	-0.458
